For 107 substances, median enrichment results are on record in the supplement of paper PMC11502859.
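Also: lentiviral eGFP-IRES-mCherry reporter pool sorted by FACS 96 h post-transduction, gated on mCherry-high cells, Illumina read counts normalized per million, median across four biological replicates.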

The test system of this data set is HEK293T. As to the kind of experiment: median enrichment of reporter reads in eGFP-reduced (low/intermediate) vs eGFP-high sorted cells (eGFP-extension fusion abundance) (ratio); higher = stronger loss of eGFP-fusion protein abundance (more destabilising extension).
For RGGRWEPSFQ [OR6Q1], the median enrichment amounted to 0.248.

Regarding QKQPQGSINNICQLNLLSSNAKKGEWRVQD [PAPOLA], the median enrichment came out at 2.06. In the case of GGGGG [Gly05] it was 1.79. In the case of EILSLAAICKGS [TET2] it was 18.6.

For the substance SSSSSSSS [Ser08], the median enrichment is 0.512. For the substance LLLL [Leu04], the median enrichment was 9.42. For YSFTNQVP [SMAD2], the median enrichment was found to be 0.532.

“LSLLIQKWGQFRKNYLLFAWWFFIMDLAQKKNC [GART]”: the median enrichment came out at 11.7. Next, “QPTGDPDLILNRRRLRDSRRHRSCPQWTPMNPSQPGPLTKTTRTSWELWDSLDSAVKDD [LILRB5]”: 1.48; SAPCSTPSPPHPPWAGS [MOSPD3]: 4.09. In the case of RRLARKMPRGG [TRAPPC3L] it was 5.87; in that of YVLILPSH [HSPA4L], 10.7. YGGPVGEPGDSRV [CHRND]: the median enrichment was 0.405. Next, QCYLVSF [TRMT10A]: 4.82. In the case of YNIYKLWVLDGLS [RBM41] it was 3.9. Next, LSGP [LCE1C]: 0.649; SCVKSFSVFSTFIKTQDNSYWREILQM [ZNF708]: 11.8; WWF [LRRCC1]: 1.79. For “GLKFCKVLRGPEHVSATRGSGQHCVLRLVSYLRLPSICVQRPRLQPSQHSAGSHAPCPHPGQQTPARVCAPSDCTPALITHRH [SLC29A4]”, the median enrichment was 5.42. Turning to TTTTTT [Thr06], the median enrichment turned out to be 0.322. As for CVF [LYRM7], the median enrichment came to 0.777. RQWLSCDDRQNGGEICLWEVEP [FBXO45]: the median enrichment is 6.14. On to “RVTFQVVPWAPGSGLWPTFSTFRPICTGCWQGGGRELTGTEGLGTQPFSTCAYRLDLSLLQKPALLCWLAGPVAAG [EIF6]”, for which the median enrichment came to 6.39. On to YEKHFGILSIMILCYRHRECCIQ [FASLG], for which the median enrichment was found to be 3.75.

As for CRVSLWPLSGIPGGRGGEGGTHIVNS [BDH1], the median enrichment is 6.12. Next, “LKTPHPSLLECVWPFSSFSWQHQLGCFLCVWPQVSK [DUSP6]”: 6.83. In the case of WNMKAEMQQTTSA [MNDA] it was 0.66. As to “GGQVAEGSGCRLLYPLCLKHPPHRALVFTRFVLDSLNGNRIPWLRAKTTTYQCPCPFQLTLSSLRSSLSLWKGHPSQGRNAWS [SLC13A5]”, the median enrichment was found to be 8.48.

As for LEQ [UNC93A], the median enrichment was 0.561. Take “RGLLALTLQPTLAVWPSPGSFPAPLPLFPVLLNSPSWRVQALGMGGTRPHSFHRALRPDTADQPHSAQEAASGVGAQRGTAAS [BAP1]”: the median enrichment was determined as 2.63. In the case of YRMETQKT [USH2A] it was 0.809; in that of MLSESRNFPAQA [Degron KLHDC3], 4.77; in that of “CIYTAKKNYECMEFFKKKYNALLQRTLGKKPYVKVMTVK [ZNF140]”, 22.2. In the case of “CFSRGQGGEGASGGVGAGGTVPREPGGSHTRTAPVSSGHCNPVGLFLQHSRSLPSIATLQTPG [SFRP1]” it was 4.21; in that of “YASRRRRRRGRAAGGTAQATQGRPLRPGGQGGRPASGDRLPPGLWQDVPSEGYFEEPPGPGDREAPVSSMNALPRTQARASGV [MSANTD1]”, 1.01.

On to “SAPPGTPSTPSIFSTKALVVSTLLPNGHTPKWPVGRESWSTCSGMVWWKRG [CLIC1]”, for which the median enrichment was 11. Next, “SSFIGLNTVCFYQSGHWHCLLFYNHVDTSISKENLSTR [RARS]”: 8.65.

Turning to RHSPLLVPH [TP53], the median enrichment was 0.971.

For the substance CGLPSGGGAMWLGS [SMYD1], the median enrichment worked out at 0.906.

As to WHHLIDYGTRKSEGFHIR [PLPP6], the median enrichment is 7.61. Next, SAIHL [XKR9]: 0.425. Next, WPQFQLSWAPAWTLPMAMPSLGNLSLPSVG [PLA2G3]: 12.4; YTSRTAT [NCOA6]: 0.753; STSAHILESYYS [ACADL]: 0.545. For the substance YSQLKECEILNY [MTREX], the median enrichment amounted to 1.31. Next, “EATKRPGFSSCCHQLALWPRARCLPFMFPHLQSELVVPDDLRSHDLLTCPMILYFVGRSIKQLLLLLCANHSCNFCSAYLPLF [ADAMTSL1]”: 5. Next, GIIIISTCPQFLSQSPSILTCTHSDAD [TCHHL1]: 3.49; LLMMFQKPK [TGIF2LX]: 8.04. Next, “DPTPLWGSGTLHCTGSLHTGRGTCAPTSETCRSPQLTCPTGAQHCTQLVGRTRACLRELPAGVMQGGGEVQGRGAGLSCHQHF [MAP3K11]”: 2.41; SASAEVTEKPYDDVPDFSVGRSRPVA [TCF25]: 0.734; “GTSLALLTHPRNTISGTRAAPRTRGYSRHNLIERAPAALTSTAFDTYASLVLLLSSESSCAHAFSRMGSPLAVAASVLALASS [KIAA1522]”: 6.48. Turning to RNCMKKIKSSKMALVTIKKL [CXorf41], the median enrichment amounted to 2.73. Next, QSVISFICCINV [LRP1B]: 11.7; SHH [SPRY2]: 0.73; YAPRR [OTUD6A]: 0.578. In the case of “SAEGKSGKMSFERCIPKASSGASGKSGPTSARPSSPSPAPPLVSSFIQQNLAGK [NKG7]” it was 0.737; in that of LEIPGFSDGPI [SLC39A2], 0.676; in that of RICKRRRHDVLCLH [MED12L], 13.4.

As for RFPSPLLLLLLDGNHSLDHACSL [TUBG2], the median enrichment came to 2.18. In the case of WCPPKP [FAM8A1] it was 0.371; in that of DDDDDDDDDD [Asp10], 0.433; in that of “LMGCSLLLSFLGLLCFAVLENHKERNSYGEVRKTEKDSCVKLFFACKLLHFKRPPLFLQRTFFAQLWTLSMVP [DLX5]”, 11.5. As to “LRRGPGSLRACEEHLLPKNVWFFFLFCFRFSSFEEQREIKRRPPGRGAFSQRLGRFPKSRVPASPAEFTSVPEAAVSSS [BIN1]”, the median enrichment was determined as 7.66.

As to WNRIEQNRIE [PCSK5], the median enrichment worked out at 0.778. In the case of CAPWWERL [HTT] it was 1.22; in that of KRYPLNIFVEVSYLYQRLGLPI [C7orf25], 15.9. With WPYWLTPENGLLLDGHGRINFSKMFWVGVE [ACTL8], the median enrichment stood at 1.37. In the case of “RLHTCMLSPRGNGLYIAHFTLFRRHFIPALVLLEGLSRQSSSCSASVCDSPPSTPMALSLGDSSSPRKEGGVAEDLQPWPRGA [PRKAB1]”, the median enrichment was determined as 7.16.

Turning to GVFDS [DDX50], the median enrichment was 0.357. Regarding CYSFQLLPLCLPG [TRIM55], the median enrichment came out at 7.06.

With KKVGRARPCQRG [Degron KLHDC3], the median enrichment was determined as 6.66. Next, “WQPPASHTVLQLTAHVHAVRADSSSTQQTRTYGLWMDADDGTVQ [CALN1]”: 8.36. Turning to RQRRD [PVR], the median enrichment turned out to be 0.306.

Regarding QSPSAARKCWSWSKIGFFKIFLVIREYI [PSD3], the median enrichment stood at 7.26.

LLRPHVKPPCPSTLPIALQRSSSWMTQI [RESP18]: the median enrichment turned out to be 7.12. In the case of “VVRASPYLLLSPCEEDPDLASFPRRGWGVPRVPVLEGPPSPSLITVLFSAPPSAARLQHQGEADAEPHRWESCLWKGAFCYNL [ZNF646]” it was 3.51. For the substance LFRCYSSLLKDDENAECLFKCF [GABRA4], the median enrichment came to 13.1.

As for YSQILALLSG [CHRNA9], the median enrichment is 12.2. In the case of QDFRSICKCLFFIIALYIVCYLTR [DDX5] it was 10.2; in that of CGAARRSR [METAP1D], 1.33; in that of FLQRTALIFRFKRLPTR [Degron UPS], 6.83. With SGLDSTRALENEMTV [APCS], the median enrichment was 0.582. On to YKISPLPACCKVT [CAMKK2], for which the median enrichment was determined as 11.5.

As to LKELIFNFSLQTGQH [TAF7], the median enrichment came out at 6.43. In the case of LHTQSPGVGHTAVISQS [ALLC] it was 0.756. As for “GVPAHSCGKGGEGRRARPEQGAGGRAQYLTRAAVLINVPMAGPRSEPASSATVTFSLRDGGGGSLSRWLSRPRSRPWVLSQLG [DUSP9]”, the median enrichment was found to be 4.83. Next, YLFFFFLIEVLVL [FAM160A1]: 25.1; LQPTWSTRAGP [KRT36]: 0.897. Next, LSSC [KRTAP13-1]: 0.413. In the case of FFFFF [Phe05] it was 7.46; in that of “YVTTPRSSAFKTKRDWGSGEGEEEQEEKKYSELLQVTLIKNLL [NR5A2]”, 8.46; in that of YHPSG [FAM183A], 0.527.

For the substance SRR [TMEM52], the median enrichment was 0.803. In the case of “WQKSKGHPVPGRLSGICSPVPGTKSSTAAVKKHALESLEHEEKQGLVHMFFGISL [IL1RAPL1]” it was 10.6; in that of “LAPLGLEFATGRILQRQVVPGPLLHPFSRRPCQRLHPVVNLVWRQRLRGWTSIVGQGLTLQGFCSWLWTPENPLLPSPNTRFL [FAM110A]”, 6.38. As for QHYS [C4BPB], the median enrichment worked out at 0.456. In the case of VVVVVVVV [Val08] it was 10.5. Next, RRKEFCKETIRFVKDILHNI [PPP1CB]: 7.66; YVI [UPRT]: 1.22. Next, FFFF [Phe04]: 9.4. “YFFLELKHPRMPLHVFHSPHLQTSLLFLTRPESKLPSLGNSGEGVSCTTYHTPSHPVSDFGMDSGKLGPSLNRVMYLNVCYFQ [HSPA1L]”: the median enrichment was found to be 10.9. Next, KIFLELLAIVTECPPFQSQLKTSAP [HEY2]: 4.36. In the case of “RKFLLNISVGSCYQNFGYDFLGSVYFGCILNYGNGIYLLLTVNLFF [CCDC181]” it was 5.89; in that of SLCC [POLQ], 0.62; in that of LLRDPAPPL [AHSP], 4.96. In the case of QNILCTALVISDLD [MALSU1], the median enrichment is 7.03. With AAAAA [Ala05], the median enrichment came to 4.35.
